Measured values as given in US20200317779A1.

Columns and labels:
[1] = biological target: recombinant human CD3ε/δ heterodimer (human) (UniProt P07766); assay: ELISA, coated CD3ε/δ
[2] = biological target: recombinant cynomolgus monkey CD3ε/δ heterodimer (cynomolgus monkey) (UniProt Q95LI5); assay: ELISA, coated CD3ε/δ
[3] = biological target: recombinant human CD3ε/δ heterodimer (human) (UniProt P07766); assay: BLI (Octet), antigen on anti-Penta His sensor, antibody 50 nM
[4] = biological target: recombinant cynomolgus monkey CD3ε/δ heterodimer (cynomolgus monkey) (UniProt Q95LI5); assay: as above

recombinant human CD3ε/δ heterodimer (human), sequence (P07766 23-126, stated change not applied, chain 1 of 2): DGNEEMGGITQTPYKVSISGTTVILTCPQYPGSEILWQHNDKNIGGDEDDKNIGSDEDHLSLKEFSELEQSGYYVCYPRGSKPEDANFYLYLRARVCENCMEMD
recombinant human CD3ε/δ heterodimer (human), sequence (P04234 22-105, stated change not applied, chain 2 of 2, further chain): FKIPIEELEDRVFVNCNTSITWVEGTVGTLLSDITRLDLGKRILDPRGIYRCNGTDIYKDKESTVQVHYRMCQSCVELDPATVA
recombinant cynomolgus monkey CD3ε/δ heterodimer (cynomolgus monkey), sequence (Q95LI5 22-117, stated change not applied, chain 1 of 2): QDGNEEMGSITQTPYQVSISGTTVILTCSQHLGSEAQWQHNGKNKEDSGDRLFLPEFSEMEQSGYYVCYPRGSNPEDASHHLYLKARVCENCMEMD
recombinant cynomolgus monkey CD3ε/δ heterodimer (cynomolgus monkey), sequence (Q95LI8 22-105, stated change not applied, chain 2 of 2, further chain): as the sequence (P04234 22-105, stated change not applied, chain 2 of 2, further chain) above, with I5V, N15K, I20V, S32T, D33N, I34N, T64A, S74N, V83L counted along it

Absorbance (450 nm) [1]	Absorbance (450 nm) [2]	Kd [3] [nM]	koff [3] [s⁻¹]	kon [3] [M⁻¹ s⁻¹]	Kd [4] [nM]	koff [4] [s⁻¹]	kon [4] [M⁻¹ s⁻¹]	Binder
0.96	2.6	23	0.00349	152000	27.5	0.00535	194000	C07 (antibody, human IgG1, lambda, L234A L235A, V domains shown) VH: EVQLVESGGGLVQPGGSLKLSCAASGFTFNTYAMNWVRQASGKGLEWVGRIRSKYNNYATYYADSVKDRFTISRDDSQSTAYLQMNSLKTEDTAVYYCVRHGNFGNSYVSWFAYWGQGTLVTVSS VL: QAVVTQEPSLTVSPGGTVTLTCRSSTGAVTTSNYANWFQQKPGQAPRGLIGGTNKRAPWTPARFSGSLLGGKAALTLSGAQPEDEAEYYCALWYSNLWVFGGGTKLTVLG
0.138	0.143	–	–	–	–	–	–	B06 (antibody, human IgG1, lambda, L234A L235A, V domains shown) VH: EVQLVESGGGLVQPGGSLKLSCAASGFTFNTYAMNWVRQASGKGLEWVGRIRSKYNNYATYYADSVKDRFTISRDDSKNTLYLQMNSLKTEDTAVYYCVRHGNFGNSYVSWFAYWGQGTLVTVSS VL: QAVVTQEPSLTVSPGGTVTLTCRSSTGAVTTSNYANWFQQKPGQAPRGLIYGTNKRAPWTPARFSGSLLGDKAALTLSGAQPEDEAEYYCALWYSNLWVFGGGTKLTVLG
0.446	2.18	29.4	0.00317	108000	35.6	0.00589	166000	C08 (antibody, human IgG1, lambda, L234A L235A, V domains shown) VH: EVQLVESGGGLVQPGGSLKLSCAASGFTFNTYAMNWVRQASGKGLEWVGRIRSKYNNYATYYADSVKDRFTISRDDSQSTAYLQMNSLKTEDTAVYYCVRHGNFGNSYVSWFAYWGQGTLVTVSS VL: QAVVTQEPSLTVSPGGTVTLTCRSSTGAVTTSNYANWFQQKPGQAPRGLIGGTNKRAPWTPARFSGSLLGDKAALTLSGAQPEDEAEYYCALWYSNLWVFGGGTKLTVLG
1.17	2.39	19	0.00214	113000	20	0.00284	143000	D07 (antibody, human IgG1, lambda, L234A L235A, V domains shown) VH: EVQLVESGGGLVQPGGSLKLSCAASGFTFNTYAMNWVRQASGKGLEWVGRIRSKYNNYATYYADSVKDRFTISRDDSQSTLYLQMNSLKTEDTAVYYCVRHGNFGNSYVSWFAYWGQGTLVTVSS VL: QAVVTQEPSLTVSPGGTVTLTCRSSTGAVTTSNYANWFQQKPGQAPRGLIGGTNKRAPWTPARFSGSLLGGKAALTLSGAQPEDEAEYYCALWYSNLWVFGGGTKLTVLG
0.098	0.076	–	–	–	–	–	–	B10 (antibody, human IgG1, lambda, L234A L235A, V domains shown) VH: EVQLVESGGGLVQPGGSLKLSCAASGFTFNTYAMNWVRQASGKGLEWVGRIRSKYNNYATYYADSVKDRFTISRDDSKNTLYLQMNSLKTEDTAVYYCVRHGNFGNSYVSWFAYWGQGTLVTVSS VL: QAVVTQEPSLTVSPGGTVTLTCRSSTGAVTTSNYANWVQQKPGQAPRTLIYGTNKRAPWTPARFSGSLLGDKAALTLSGAQPEDEAEYYCALWYSNLWVFGGGTKLTVLG
0.897	2.53	35	0.00287	82000	21.6	0.00266	123000	D08 (antibody, human IgG1, lambda, L234A L235A, V domains shown) VH: EVQLVESGGGLVQPGGSLKLSCAASGFTFNTYAMNWVRQASGKGLEWVGRIRSKYNNYATYYADSVKDRFTISRDDSQSTLYLQMNSLKTEDTAVYYCVRHGNFGNSYVSWFAYWGQGTLVTVSS VL: QAVVTQEPSLTVSPGGTVTLTCRSSTGAVTTSNYANWFQQKPGQAPRGLIGGTNKRAPWTPARFSGSLLGDKAALTLSGAQPEDEAEYYCALWYSNLWVFGGGTKLTVLG
–	–	0.229	6.01e-05	262000	0.14	5.3e-05	378000	Mouse human chimeric SP34 IgG1 antibody (antibody, V domains shown) VH: EVQLVESGGGLVQPKGSLKLSCAASGFTFNTYAMNWVRQAPGKGLEWVARIRSKYNNYATYYADSVKDRFTISRDDSQSILYLQMNNLKTEDTAMYYCVRHGNFGNSYVSWFAYWGQGTLVTVSS VL: QAVVTQESALTTSPGETVTLTCRSSTGAVTTSNYANWVQEKPDHLFTGLIGGTNKRAPGVPARFSGSLIGDKAALTITGAQTEDEAIYFCALWYSNLWVFGGGTKLTVLG
2.53	3.01	0.294	9.6e-05	327000	0.533	0.000233	437000	D15 (antibody, human IgG1, lambda, L234A L235A, V domains shown) VH: EVQLVESGGGLVQPGGSLKLSCAASGFTFNTYAMNWVRQASGKGLEWVGRIRSKYNNYATYYADSVKDRFTISRDDSQSTLYLQMNSLKTEDTAVYYCVRHGNFGNSYVSWFAYWGQGTLVTVSS VL: QAVVTQEPSLTVSPGGTVTLTCRSSTGAVTTSNYANWVQQKPGQAPRGLIGGTNKRAPWTPARFSGSLLGGKAALTLSGAQPEDEAEYYCALWYSNLWVFGGGTKLTVLG
0.127	0.102	–	–	–	–	–	–	B14 (antibody, human IgG1, lambda, L234A L235A, V domains shown) VH: EVQLVESGGGLVQPGGSLKLSCAASGFTFNTYAMNWVRQASGKGLEWVGRIRSKYNNYATYYADSVKDRFTISRDDSKNTLYLQMNSLKTEDTAVYYCVRHGNFGNSYVSWFAYWGQGTLVTVSS VL: QAVVTQEPSLTVSPGGTVTLTCRSSTGAVTTSNYANWVQQKPGQAPRGLIYGTNKRAPWTPARFSGSLLGDKAALTLSGAQPEDEAEYYCALWYSNLWVFGGGTKLTVLG
2.37	2.8	0.419	0.000112	268000	0.888	0.000341	384000	C16 (antibody, human IgG1, lambda, L234A L235A, V domains shown) VH: EVQLVESGGGLVQPGGSLKLSCAASGFTFNTYAMNWVRQASGKGLEWVGRIRSKYNNYATYYADSVKDRFTISRDDSQSTAYLQMNSLKTEDTAVYYCVRHGNFGNSYVSWFAYWGQGTLVTVSS VL: QAVVTQEPSLTVSPGGTVTLTCRSSTGAVTTSNYANWVQQKPGQAPRGLIGGTNKRAPWTPARFSGSLLGDKAALTLSGAQPEDEAEYYCALWYSNLWVFGGGTKLTVLG
0.132	0.094	–	–	–	–	–	–	A03 (antibody, human IgG1, lambda, L234A L235A, V domains shown) VH: EVQLVESGGGLVQPGGSLKLSCAASGFTFNTYAMNWVRQASGKGLEWVGRIRSKYNNYATYYADSVKDRFTISRDDSKNTAYLQMNSLKTEDTAVYYCVRHGNFGNSYVSWFAYWGQGTLVTVSS VL: QAVVTQEPSLTVSPGGTVTLTCRSSTGAVTTSNYANWFQQKPGQAPRTLIGGTNKRAPWTPARFSGSLLGGKAALTLSGAQPEDEAEYYCALWYSNLWVFGGGTKLTVLG
0.098	0.072	–	–	–	–	–	–	B12 (antibody, human IgG1, lambda, L234A L235A, V domains shown) VH: EVQLVESGGGLVQPGGSLKLSCAASGFTFNTYAMNWVRQASGKGLEWVGRIRSKYNNYATYYADSVKDRFTISRDDSKNTLYLQMNSLKTEDTAVYYCVRHGNFGNSYVSWFAYWGQGTLVTVSS VL: QAVVTQEPSLTVSPGGTVTLTCRSSTGAVTTSNYANWVQQKPGQAPRTLIGGTNKRAPWTPARFSGSLLGDKAALTLSGAQPEDEAEYYCALWYSNLWVFGGGTKLTVLG
0.132	0.107	–	–	–	–	–	–	B11 (antibody, human IgG1, lambda, L234A L235A, V domains shown) VH: EVQLVESGGGLVQPGGSLKLSCAASGFTFNTYAMNWVRQASGKGLEWVGRIRSKYNNYATYYADSVKDRFTISRDDSKNTLYLQMNSLKTEDTAVYYCVRHGNFGNSYVSWFAYWGQGTLVTVSS VL: QAVVTQEPSLTVSPGGTVTLTCRSSTGAVTTSNYANWVQQKPGQAPRTLIGGTNKRAPWTPARFSGSLLGGKAALTLSGAQPEDEAEYYCALWYSNLWVFGGGTKLTVLG
0.096	0.099	–	–	–	–	–	–	B09 (antibody, human IgG1, lambda, L234A L235A, V domains shown) VH: EVQLVESGGGLVQPGGSLKLSCAASGFTFNTYAMNWVRQASGKGLEWVGRIRSKYNNYATYYADSVKDRFTISRDDSKNTLYLQMNSLKTEDTAVYYCVRHGNFGNSYVSWFAYWGQGTLVTVSS VL: QAVVTQEPSLTVSPGGTVTLTCRSSTGAVTTSNYANWVQQKPGQAPRTLIYGTNKRAPWTPARFSGSLLGGKAALTLSGAQPEDEAEYYCALWYSNLWVFGGGTKLTVLG
0.131	0.075	–	–	–	–	–	–	C01 (antibody, human IgG1, lambda, L234A L235A, V domains shown) VH: EVQLVESGGGLVQPGGSLKLSCAASGFTFNTYAMNWVRQASGKGLEWVGRIRSKYNNYATYYADSVKDRFTISRDDSQSTAYLQMNSLKTEDTAVYYCVRHGNFGNSYVSWFAYWGQGTLVTVSS VL: QAVVTQEPSLTVSPGGTVTLTCRSSTGAVTTSNYANWFQQKPGQAPRTLIYGTNKRAPWTPARFSGSLLGGKAALTLSGAQPEDEAEYYCALWYSNLWVFGGGTKLTVLG
2.45	2.81	0.43	0.000162	376000	0.653	0.000343	525000	C15 (antibody, human IgG1, lambda, L234A L235A, V domains shown) VH: EVQLVESGGGLVQPGGSLKLSCAASGFTFNTYAMNWVRQASGKGLEWVGRIRSKYNNYATYYADSVKDRFTISRDDSQSTAYLQMNSLKTEDTAVYYCVRHGNFGNSYVSWFAYWGQGTLVTVSS VL: QAVVTQEPSLTVSPGGTVTLTCRSSTGAVTTSNYANWVQQKPGQAPRGLIGGTNKRAPWTPARFSGSLLGGKAALTLSGAQPEDEAEYYCALWYSNLWVFGGGTKLTVLG
0.169	0.156	–	–	–	–	–	–	B13 (antibody, human IgG1, lambda, L234A L235A, V domains shown) VH: EVQLVESGGGLVQPGGSLKLSCAASGFTFNTYAMNWVRQASGKGLEWVGRIRSKYNNYATYYADSVKDRFTISRDDSKNTLYLQMNSLKTEDTAVYYCVRHGNFGNSYVSWFAYWGQGTLVTVSS VL: QAVVTQEPSLTVSPGGTVTLTCRSSTGAVTTSNYANWVQQKPGQAPRGLIYGTNKRAPWTPARFSGSLLGGKAALTLSGAQPEDEAEYYCALWYSNLWVFGGGTKLTVLG
